Experimental findings from US20240409599A1 (Genentech, published 2024) are described below.

Experiment [1] concerns the target T1, Mouse IL-18Rα extracellular domain (mouse, UniProt Q61098 20-326, biotinylated (site not stated)).
T1 sequence: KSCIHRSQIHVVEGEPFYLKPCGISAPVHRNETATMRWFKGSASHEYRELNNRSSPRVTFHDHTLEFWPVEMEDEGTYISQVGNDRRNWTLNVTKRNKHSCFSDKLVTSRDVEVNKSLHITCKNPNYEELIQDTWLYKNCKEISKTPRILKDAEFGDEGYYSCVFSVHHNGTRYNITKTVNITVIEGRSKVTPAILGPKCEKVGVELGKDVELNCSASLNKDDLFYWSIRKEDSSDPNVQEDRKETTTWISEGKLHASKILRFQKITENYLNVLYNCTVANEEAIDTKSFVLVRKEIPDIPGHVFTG
In words: SPR, Biacore 8K, 37 C, biotinylated target on SA chip, single-cycle kinetics. Here is the method: (§1) SPR experiments were performed using a Biacore 8K (Cytiva) at a temperature of 37° C. Biotinylated human or mouse IL-18Rα and IL-18BP were immobilized onto Biacore streptavidin sensor chip (Series S Sensor Chip SA, Cytiva) to yield an Rmax ≤50 RU. Measurements were made with five, three-fold dilutions into HBS-P+ buffer (10 mM HEPES pH 7.4, 150 mM NaCl, 0.005% surfactant P20). Interactions were evaluated using the single-cycle kinetics method and analyzed with the Biacore 8K evaluation software and fit to a 1:1 binding model.
(§2) A subset of variants were selected for analyses of binding kinetics to the L-18 receptor, IL-IM, and the decoy receptor, L-18BP, by surface plasmon resonance (SPR) (Table 8). With two exceptions, all kinetics constants are within an order of magnitude of wild-type IL-18.

Experiment [2] deals with T2, Mouse IL-18BP (isoform D) (mouse, UniProt Q9Z0M9 29-193, biotinylated (site not stated)).
T2 sequence: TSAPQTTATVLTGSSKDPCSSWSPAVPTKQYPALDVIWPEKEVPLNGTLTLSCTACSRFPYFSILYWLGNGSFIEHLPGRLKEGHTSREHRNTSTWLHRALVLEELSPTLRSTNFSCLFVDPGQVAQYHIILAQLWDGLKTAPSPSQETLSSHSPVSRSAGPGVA
The experiment is described as above. Here is the method:
as §1, §2

Experiment [3] deals with T3, Human IL-18Rα extracellular domain (human, UniProt Q13478 22-329, biotinylated (site not stated)).
T3 construct: also called IL-18 receptor
T3 sequence: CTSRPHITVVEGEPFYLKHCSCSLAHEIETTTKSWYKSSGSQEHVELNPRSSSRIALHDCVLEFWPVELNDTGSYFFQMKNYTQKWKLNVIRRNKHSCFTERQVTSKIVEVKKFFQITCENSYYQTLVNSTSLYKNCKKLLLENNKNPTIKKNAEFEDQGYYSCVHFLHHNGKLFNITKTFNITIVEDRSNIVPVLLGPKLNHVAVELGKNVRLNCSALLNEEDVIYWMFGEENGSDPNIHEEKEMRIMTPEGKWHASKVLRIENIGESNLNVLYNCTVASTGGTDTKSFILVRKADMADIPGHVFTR
Description: SPR, Biacore 8K, 37 C, biotinylated target on SA chip. Here is the method: as §1, §2

In experiment [4] the target is T4, Human IL-18BP (isoform A) (human, UniProt O95998 31-194, biotinylated (site not stated)).
T4 construct: also called decoy receptor
T4 sequence: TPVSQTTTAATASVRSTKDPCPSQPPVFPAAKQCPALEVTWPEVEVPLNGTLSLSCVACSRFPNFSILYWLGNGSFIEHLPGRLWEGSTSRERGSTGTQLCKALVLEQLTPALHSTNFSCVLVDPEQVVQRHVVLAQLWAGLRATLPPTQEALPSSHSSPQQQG
Description: SPR, Biacore 8K, 37 C, biotinylated target on SA chip, single-cycle kinetics. Here is the method: as §1, §2

B1: Mouse IL-18 T44C/L189C (ligand)
chain: NFGRLHSTCAVIRNINDQVLFVDKRQPVFEDMTDIDQSASEPQTRLIIYMYKDSEVRGLAVTLSVKDSKMSTLSSKNKIISFEEMDPPENIDDIQSDLIFFQKRVPGHNKMEFESSLYEGHFLASQKEDDAFKLILKKKDENGDKSVMFTLTNCHQS
notes: Made in mammalian cells
In experiment [1], B1 gave an equilibrium dissociation constant (Kd) of 5200 pM, an off-rate constant (koff) of 0.04 s⁻¹ and an association rate constant (kon) of 7.6e+06 M⁻¹ s⁻¹. In experiment [2], this molecule came in with a dissociation constant Kd of 5 pM, a koff of 1.1e-05 s⁻¹ and an on-rate constant (kon) of 2e+06 M⁻¹ s⁻¹.

B2: Human IL-18 N50C (ligand)
chain: YFGKLESKLSVIRCLNDQVLFIDQGNRPLFEDMTDSDSRDNAPRTIFIISMYKDSQPRGMAVTISVKSEKISTLSSENKIISFKEMNPPDNIKDTKSDIIFFQRSVPGHDNKMQFESSSYEGYFLACEKERDLFKLILKKEDELGDRSIMFTVQNED
notes: Made in mammalian cells
As for B2, the binding result in experiment [3] was “no binding (tested: up to 81 nM)”. Moreover, in experiment [4], the Kd is 6.2 pM, the off-rate (koff) turned out to be 2.6e-05 s⁻¹ and the kon was 4.22e+06 M⁻¹ s⁻¹.

B3: Human IL-18 N50C/L174C (ligand)
chain: YFGKLESKLSVIRCLNDQVLFIDQGNRPLFEDMTDSDSRDNAPRTIFIISMYKDSQPRGMAVTISVKSEKISTLSCENKIISFKEMNPPDNIKDTKSDIIFFQRSVPGHDNKMQFESSSYEGYFLACEKERDLFKLICKKEDELGDRSIMFTVQNED
notes: Made in mammalian cells
On to B3, for which the binding result in experiment [3] is given as “no binding (tested: up to 81 nM)”. For the same molecule, in experiment [4], binding was characterised by a dissociation constant (Kd) of 14 pM, the off-rate constant (koff) came to 4.8e-05 s⁻¹ and the kon was 3.6e+06 M⁻¹ s⁻¹.
